The values that follow come from patent US20250042996A1 (ALLAKOS, published 2025).

Residue numbers refer to the chain shown, from its start. Where two headings read alike, the source gives them in different places.

The target in assay [1] is human SIGLEC-9-ECD-Fc recombinant fusion protein (human) (UniProt Q9Y336). The experiment in a line: Ligand Displacement Assay, negative control: fitted value printed for a curve that only dips at the last points; unit inferred, x axis 'Ab (nM)'.
The target is the same in assay [2]. Nature of the assay: Siglec-9/Ligand Blocking Assay, negative control: fitted value printed for an almost flat curve; unit inferred, x axis 'Ab (nM)'.
For assay [3] the target is unchanged. The experiment in a line: column 'Blocking EC50 (nM)': ligand blocking assay, antibody pre-mixed with Siglec-9-ECD-Fc, blocked binding to Siglec-9 ligands on T47D cells, flow cytometry.
Assay [4] has the same target. The experiment in a line: column 'Displacement EC50 (nM)': ligand displacement assay, Siglec-9-ECD-Fc pre-bound to ligands on T47D cells, antibody titrated, remaining Siglec-9-ECD-Fc by flow cytometry.
Assay [5] shares this target. Nature of the assay: Ligand Displacement Assay: Siglec-9-ECD-Fc pre-bound to ligands on T47D cells, antibody titrated, remaining Siglec-9-ECD-Fc as median MFI by flow cytometry; unit inferred, x axis 'Ab (nM)'.
The target of assay [6] is human Siglec-9 (expressed on transfected Expi293 cells; also on primary human monocytes) (human) (UniProt Q9Y336).
human Siglec-9 (expressed on transfected Expi293 cells; also on primary human monocytes) (human), sequence (Q9Y336 18-463 limits assumed): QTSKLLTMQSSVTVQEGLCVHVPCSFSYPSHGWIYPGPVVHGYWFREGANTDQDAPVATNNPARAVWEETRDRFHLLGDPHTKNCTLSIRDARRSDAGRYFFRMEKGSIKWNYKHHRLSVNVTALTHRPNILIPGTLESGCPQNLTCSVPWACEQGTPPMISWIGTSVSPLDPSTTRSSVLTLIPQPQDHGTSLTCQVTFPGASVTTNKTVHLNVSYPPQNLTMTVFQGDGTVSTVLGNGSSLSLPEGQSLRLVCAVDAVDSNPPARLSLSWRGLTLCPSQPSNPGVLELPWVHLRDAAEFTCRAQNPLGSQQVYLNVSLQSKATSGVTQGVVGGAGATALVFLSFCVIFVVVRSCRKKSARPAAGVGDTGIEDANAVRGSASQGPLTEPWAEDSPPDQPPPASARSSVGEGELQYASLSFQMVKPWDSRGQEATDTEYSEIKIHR
Assay [7] addresses human SIGLEC-9-ECD-Fc recombinant fusion protein (human) (UniProt Q9Y336). The experiment in a line: Siglec-9/Ligand Blocking Assay: antibody titrated against Siglec-9-ECD-Fc, blocked binding to ligands on T47D cells, median MFI by flow cytometry; unit inferred, x axis 'Ab (nM)'.
Assay [8] has as its target T1, human SIGLEC-9-ECD-Fc recombinant fusion protein (human, UniProt Q9Y336 18-343).
T1 construct: The range starts at residue 1, so it includes the signal peptide; No cleavage site is stated; Secreted from CHOK1SV cells and purified on Protein A; also called Siglec-9-ECD-huFc; S9-ECD-Fc
Nature of the assay: Ligand Displacement Assay: Siglec-9-ECD-Fc pre-bound to ligands on T47D cells, antibody titrated, remaining Siglec-9-ECD-Fc as median MFI by flow cytometry; unit inferred, x axis 'Ab (nM)'. The protocol:
(§1) Recombinant Siglec-9-Fc was added to T47D cells in the presence of anti-Siglec-9 antibodies at increasing concentrations and binding of the complex was detected on the cell surface. […] The ability of an antibody to displace ligand binding was also determined (FIGS. 3 and 5).
(§2) T47D cells were treated with 2ug/mL S9-ECD-Fc for 1 hour on ice. After the 1 hr preincubation of S9, a titration curve of anti Siglec-9 msIgG1s were added for 1 hr incubation at +37° C. Cells were then washed to remove unbound S9. Bound S9 were detected through the human Fc using Alexa488 conjugated secondary. Levels of remaining S9 were assessed by flow cytometry”

Assay [9] addresses human Siglec-9 (expressed on transfected Expi293 cells; also on primary human monocytes) (human, UniProt Q9Y336 18-463). The experiment in a line: cell-based or functional assay.
In assay [10] the target is T1, human SIGLEC-9-ECD-Fc recombinant …. The experiment in a line: Siglec-9/Ligand Blocking Assay: antibody titrated against Siglec-9-ECD-Fc, blocked binding to ligands on T47D cells, median MFI by flow cytometry; unit inferred, x axis 'Ab (nM)'. The protocol:
as §1
(§3) Human breast cancer cell line T47D, which expresses high level of ligands for Siglec-9, was used to determine the blocking activity of anti-Siglec-9 antibodies in a cell-based assay. Two-fold serial dilutions of anti-Siglec-9 antibodies (40 nM to 40 pM) were combined with 10 nM Siglec-9-ECD-Fc in FACS buffer (PBS/2% BSA) and incubated on ice for 30 minutes. 2.5×10e4 T47D cells per well were added to round bottom 96-well tissue culture plates in FACS buffer, plates were centrifuged at 400g for 2 min, supernatant was removed and cells were re-suspended in 100 ul of the antibody-Siglec-9 complexes. After a 1 hour incubation on ice, cells were washed twice and incubated for 30 minutes with goat anti-human F(ab′)₂ fragment conjugated to AF647 (Jackson IR labs) at lug/ml in FACS buffer. After two more washes, cells were fixed in PBS/2% PFA and acquired on a Novocyte flow cytometer (ACEA biosciences). IC₅₀ values for blocking were determined based on plotting mean fluorescence in the APC channel and analysis using Prism Graphpad software.

Assay [11] shares this target. The experiment in a line: column 'Blocking EC50 (nM)': ligand blocking assay, antibody pre-mixed with Siglec-9-ECD-Fc, blocked binding to Siglec-9 ligands on T47D cells, flow cytometry. The method, then:
as §1, §3

Assay [12] has the same target. Nature of the assay: bio-layer interferometry (ForteBio), antibody captured on anti-mouse sensors, Siglec-9-ECD as analyte, 25 C, 1:1 global fit. The protocol: Antibody binding analysis was carried out by bio-layer interferometry (ForteBio). […] Antibodies were captured on anti-mouse kinetic sensors at 0.5 ug/mL; Siglec-9-ECD was used as analyte and diluted in assay buffer from 50 nM to 1.56 nM with 2x dilutions. Two-minute associations were conducted, followed by 10-minute dissociations. Results were determined relative to a control empty reference AHC sensor, and analyzed using ForteBio analysis software with 1:1 global fit parameters.

For assay [13] the target is unchanged. The experiment in a line: column 'Displacement EC50 (nM)': ligand displacement assay, Siglec-9-ECD-Fc pre-bound to ligands on T47D cells, antibody titrated, remaining Siglec-9-ECD-Fc by flow cytometry. The method, then:
as §1, §2

For assay [14] the target is unchanged. The experiment in a line: BLI (ForteBio Octet Red), SIGLEC-9-ECD-Fc on anti-human Fc sensors, Fab in solution, monovalent. The protocol:
(§4) Anti-human Fc sensors were coated with SIGLEC-9-ECD-Fc at a concentration of 20 μg/ml in 1XHBS+1% BSA buffer (GE Lifesciences). After a brief wash with 1XHBS+1% BSA buffer, m9A12, ch9A12 or the humanized Fabs were applied to the antigen-coated sensors. The monovalent binding association and dissociation rates were calculated by the ForteBio Octet Red analysis software.

For assay [15] the target is unchanged. The assay is described as above. The protocol: The V-regions from the humanized Fab were re-formatted for expression as a human IgG4.
as §4
This is another data set of the same source.

T1 sequence (Q9Y336 18-343): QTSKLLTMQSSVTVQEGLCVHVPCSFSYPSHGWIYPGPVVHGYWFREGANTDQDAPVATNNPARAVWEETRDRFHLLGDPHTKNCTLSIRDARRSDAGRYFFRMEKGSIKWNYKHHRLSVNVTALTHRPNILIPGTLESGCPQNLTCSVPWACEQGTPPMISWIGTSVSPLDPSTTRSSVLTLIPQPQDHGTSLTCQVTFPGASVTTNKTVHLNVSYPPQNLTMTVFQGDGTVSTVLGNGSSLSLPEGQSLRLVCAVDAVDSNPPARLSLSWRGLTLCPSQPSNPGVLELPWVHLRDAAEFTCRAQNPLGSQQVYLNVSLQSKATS
human SIGLEC-9-ECD-Fc recombinant fusion protein (human), sequence (Q9Y336 18-343): as above
human Siglec-9 (expressed on transfected Expi293 cells; also on primary human monocytes), sequence (Q9Y336 18-463 limits assumed): as the sequence (Q9Y336 18-463 limits assumed) above

For the molecule msIgG1 (p1) (antibody), the IC50 in [1] came out at 140 nM.

As for Isotype (p3) (antibody), in assay [2], the IC50 worked out at 71.3 nM.

On to “anti-Siglec-9 monoclonal antibody MAB1139 (R&D Systems)”, for which the EC50 is 4.4 nM in assay [3] and 2 nM in assay [4]. For the same molecule, the values for the half-maximal inhibitory concentration (IC50) in assay [5] and in assay [7] were 2 nM and 4.39 nM, respectively. Further, the Internalization EC50: loss of surface Siglec-9 on CD14+ monocytes in PBMC after 24 h in assay [6] was 0.165 nM.

B1: mouse anti-Siglec-9 monoclonal antibody 9A12 (antibody, V domains shown)
VH: QVQLQQSGAELVRPGASVTLSCKASDYTFTDYEMHWVKQTPVHGLEWIGAIDPEAGGTDYNQKFKGKAILTADKSSSTAYMELRSLTSEDSAVYYCTRVWLHWGQGTTLTVSS
VL: NIVMTQSPSSLAVSAGEKVTMNCKSSQSVLYSSNQKNYLAWYQQKPGQSPKMLIYWASTRESGVPDRFTGSGSGTDFTLTISSVQSEDLAVYYCHQYLSSNTFGGGTKLEIK
notes: Mouse monoclonal antibody; also called m9A12
B1: the results for the IC50 in [8] and in assay [10] were 1.52 nM and 2.62 nM, respectively. For the same molecule, in assay [9], the “Internalization EC50: loss of surface Siglec-9 on CD14+ monocytes in PBMC after 24 h” value was 0.125 nM. Besides, the EC50 in assay [11] was determined as 2.62 nM; in assay [13], 1.52 nM. The Kd in [12] was less than 0.001 nM.

B2: Tf84 Fab (Fab)
chain 1: QVQLVQSGAEVKKPGASVKVSCKASDYTFTDYEMHWVRQAPGQGLEWMGAINPESGGTDYAQKFQGRVTMTADTSISTAYMELSRLRSDDTAVYYCTRVWLHWGQGTLVTVSS
chain 2: B1 VL with N1D, S9D, A15L, K18R, S49P, T69S, V84L, S86A, L89V, G105Q
For the molecule B2, in [14], the Kd was determined as 2.24 nM, the koff came out at 0.00295 s⁻¹ and the on-rate constant (kon) was 1.32e+06 M⁻¹ s⁻¹.

B3: Tf73 Fab (Fab, V domains shown)
VH: B2 chain 1 with D31G, N52D, S55A
VL: B1 VL with N1D, S9D, A15L, K18R, S49P, T69S, V84L, S86A, L89V, G105Q
notes: also called AK643-3 / AK628-1
B3: in assay [14], the Kd was 0.575 nM, the koff stood at 0.000184 s⁻¹ and the kon turned out to be 319000 M⁻¹ s⁻¹. In addition, in assay [15], the dissociation constant (Kd) came to 0.575 nM, the koff came out at 0.000184 s⁻¹ and the on-rate constant (kon) turned out to be 319000 M⁻¹ s⁻¹.

B4: Tf71 Fab (Fab)
chain 1: B2 chain 1 with D26G, N52D, S55A
chain 2: B1 VL with N1D, S9D, A15L, K18R, S49P, T69S, V84L, S86A, L89V, G105Q
B4: in assay [14], the dissociation constant Kd amounted to 0.533 nM, the koff was found to be 0.000232 s⁻¹ and the kon came to 435000 M⁻¹ s⁻¹.

B5: Tf83 Fab (Fab)
chain 1: B2 chain 1 with S55A
chain 2: B1 VL with N1D, S9D, A15L, K18R, S49P, T69S, V84L, S86A, L89V, G105Q
B5: in assay [14], the dissociation constant (Kd) came out at 9.99 nM, the koff is 0.00297 s⁻¹ and the association rate constant (kon) came to 298000 M⁻¹ s⁻¹.

B6: Tf63 Fab (Fab, V domains shown)
VH: B2 chain 1 with N52D, S55A
VL: B1 VL with N1D, S9D, A15L, K18R, S49P, T69S, V84L, S86A, L89V, G105Q
notes: Humanized 9A12 Fab; also called AK639-12 / AK628-1
As to B6, in [15], the Kd stood at 0.66 nM, the koff amounted to 0.00016 s⁻¹ and the kon was 242000 M⁻¹ s⁻¹.
